# ± gives the standard deviation of the averaged measurements.
# Test system: Saccharomyces cerevisiae
# Experiment: protein stability index of tFT-peptide fusion (C-terminal peptide) (PSI (0-1 scale)); higher = more stable (slower turnover)
# Conditions: genetic background: wild type; temperature: 30 C
# Protocol: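 Multiplexed protein stability (MPS) profiling in S. cerevisiae. Random 12-aa peptides (tFT-X12 library) are fused to the C-terminus of a sfGFP-mCherry tandem fluorescent timer, after mCherry and a GGGS linker. Cells are FACS-sorted into 8 mCherry/sfGFP bins and deep-sequenced. The protein stability index (PSI) is the read-weighted bin average, scaled from 0 (unstable) to 1 (stable). Only peptides with >10 reads are reported; cells were grown at 30 °C in SC-His with glucose.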
# 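Note: PSI is a weighted mean of sequencing reads over stability bins, variants kept only with over 10 reads, mCherry proximal and sfGFP distal, peptide attached via GGGS linker.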
row,Sequence,protein stability index
1,GWAGGEGWRGEG,0.6964 ± 0.0062
2,LPPTSPPPSSPP,0.7007 ± 0.0041
3,SPTPPPTSPSRP,0.728 ± 0.11
4,VNQVRVSICDLL,0.69263 ± 0.00047
5,PCVCLRWTGKAF,0.532 ± 0.031
6,TPLHRIGGLHLK,0.653 ± 0.0075
7,AGERQIRISING,0.691 ± 0.031
8,REENIKSKCRKI,0.742 ± 0.021
9,PVPSRAQTRSRA,0.65 ± 0.073
10,LAFFEFVVDSLG,0.677 ± 0.018
11,SGHSRCSPALPV,0.7123 ± 0.002
12,PPPPPLLPPPPA,0.721 ± 0.02
13,QYKEFYYQNNRR,0.562 ± 0.062
14,NINYETNKQTDR,0.668 ± 0.022
15,KTKEKTKKEIQM,0.629 ± 0.0042
16,HLCLACYRSVDM,0.688 ± 0.011
17,GTRAGGGWSCES,0.711 ± 0.02
18,WAFGFLFISSAM,0.5077 ± 0.0014
19,VGARAIITIEFG,0.598 ± 0.018
20,VGASFVAVGVEG,0.641 ± 0.041
21,FFPSPPPVLSPP,0.747 ± 0.021
22,NNRVVRGRKWGG,0.682 ± 0.015
23,LVIKNVWHESTY,0.709 ± 0.054
24,RVGTGFVGYSFS,0.679 ± 0.13
25,PLWLPPTPMQII,0.62 ± 0.013

row,Sequence,protein stability index
1,PLPPPVFLLFPL,0.667 ± 0.051
2,IRKLDIIFLSES,0.827 ± 0.063
3,IDPVVFCEYTHA,0.688 ± 0.011
4,PPVPRSPPPRRS,0.719 ± 0.12
5,GSFVLPLIYIHN,0.499 ± 0.0025
6,HSCFPPLSTSVL,0.817 ± 0.12
7,FSLSLACPPPHS,0.679 ± 0.19
8,RGFWRGGVVRGG,0.73 ± 0.021
9,GETVGCARLRLS,0.566 ± 0.023
10,YLDVWTGLSCQD,0.683 ± 0.11
11,PPAPPLFVSSPG,0.684 ± 0.048
12,YWEVYAGLSLWV,0.63 ± 0.0048
13,QKKKVKETRNER,0.672 ± 0.034
14,SVVGHGVCGGRG,0.649 ± 0.11
15,RAGGGAWAGGVA,0.7085 ± 0.0024
16,GGLVVGCGGMWV,0.609 ± 0.0075
17,RRGPDRCSSLPS,0.6638 ± 0.0044
18,LFFGVEWWRFEG,0.5604 ± 0.0023
19,MRRKKSGPEYQR,0.678 ± 0.059
20,NHIASQASRRGR,0.637 ± 0.069
21,LVKLGSTLSGVG,0.582 ± 0.026
22,SGAGRRRGGARE,0.651 ± 0.031
23,FFSGYVVSTRHM,0.702 ± 0.089
24,RCVGVTNESTGT,0.661 ± 0.013
25,PSPPPFPPIPFC,0.708 ± 0.048

row,Sequence,protein stability index
1,CFVLPWHVPFGF,0.715 ± 0.021
2,GPLRFSLPPPPS,0.69 ± 0.017
3,DQATEPTPKPPD,0.643 ± 0.0079
4,GGVRTLVSRHLP,0.7121 ± 0.0043
5,RTAPVPETAQQD,0.678 ± 0.034
6,FLGLDLVFRFFV,0.554 ± 0.066
7,LISFSGFSPFLW,0.7678 ± 0.0027
8,GGCTVLRASIFA,0.597 ± 0.0063
9,PLRPQALDPFLY,0.6835 ± 0.0028
10,GVRGALGCAGRV,0.679 ± 0.02
11,SDLPPCPSRPSP,0.661 ± 0.11
12,FSLPSRAPLPRF,0.735 ± 0.13
13,PPLRPPPPPPPP,0.668 ± 0.072
14,FLFGILFTSRAV,0.5311 ± 0.0015
15,LCSPCSSLFHSQ,0.656 ± 0.032
16,RLGHAIVLLLPC,0.57 ± 0.027
17,PPPRPHPTRLSY,0.576 ± 0.054
18,ASMRIVWWFGML,0.495 ± 0.047
19,GLVCSHLRTAGS,0.6857 ± 0.0063
20,KKKPKKQRKNKR,0.684 ± 0.013
21,FPQSDFFLLILS,0.549 ± 0.013
22,LWGAIGHGNAGP,0.684 ± 0.029
23,YKGNVRNPTLHA,0.655 ± 0.05
24,TASAAKGAAPQQ,0.676 ± 0.016
25,TGLYLRCVWGVQ,0.507 ± 0.046

row,Sequence,protein stability index
1,IPQTITLPHSNP,0.694 ± 0.088
2,CGQGRSVPFRSV,0.658 ± 0.0094
3,GGGAEGGVRGGG,0.664 ± 0.027
4,GERGTRAERAGA,0.682 ± 0.032
5,SGKSSFLGAVWV,0.711 ± 0.0061
6,GSGRGGWRRGER,0.707 ± 0.042
7,EGIVRYRKRGSR,0.665 ± 0.015
8,CLRWSRVGTVVV,0.564 ± 0.025
9,FRRILGTIKLGR,0.69 ± 0.023
10,GLYRQRVCLRSG,0.6097 ± 0.0036
11,AGGTRRRTGRRR,0.7019 ± 0.0024
12,SVSRGAPSGSLG,0.688 ± 0.067
13,GRCRALVARGGH,0.76 ± 0.2
14,ERGKRSTEWARK,0.681 ± 0.042
15,RLRASFFFSPAL,0.733 ± 0.056
16,LYDAALHTKIFR,0.634 ± 0.012
17,PPRPPPPPLRST,0.758 ± 0.078
18,LPPSPLALVSSS,0.637 ± 0.021
19,EALTTAATRYGP,0.651 ± 0.0068
20,GRVSGDRFIVIV,0.572 ± 0.0008
21,PLLLLLPPPPSP,0.674 ± 0.033
22,NVRKWSREDQTG,0.6679 ± 0.00079
23,LRRMQGTGCPLP,0.643 ± 0.035

# Source: the supplement of paper PMC10724198
